Assay results published in US8409836B2, “Treatment of cellulosic material and enzymes useful therein” (Roal Oy, priority 2005, dated 2013).

What was measured:
[1] = Isoelectric focusing (PhastSystem), pI of purified protein; type: physicochemical; settings: IEF gel
Method: The sample was dissolved in water and applied to a Superdex 75 HR 10/30 gel filtration column equilibrated with 20 mM sodium phosphate pH 6.0, containing 0.15 M NaCl. Fractions were collected and those containing endoglucanase activity were combined. The protein eluate was judged to be pure by SDS-polyacrylamide gel electrophoresis and the molecular mass was evaluated on the basis of molecular mass standards (prestained SDS-PAGE standards, Broad Range, Bio-Rad) to be 54 kDa. The pI of the purified protein, designated as Ct EG—54 was determined with PhastSystem (Pharmacia) to be ca 5.5.
The sample was applied to a Sephacryl S-100 HR 26/60 gel filtration column equilibrated with 50 mM sodium acetate buffer pH 5.0, containing 0.05 M NaCl. The protein fraction containing endoglucanase activity was eluted from the column with a retention volume corresponding to a molecular weight of 16 kDa. Collected fractions were combined, concentrated and gel filtration was repeated. The protein eluate was judged to be pure by SDS-polyacryl amide gel electrophoresis and the molecular weight was evaluated to be 28 kDa. The pI of the purified protein, designated as Ta EG—28, was determined in an IEF gel (PhastSystem, Pharmacia) to be about 3.5. The specific activity of Ta EG—28 at 50° C. was determined to be 4290 nkat/mg (procedure of IUPAC 1987, using CMC as substrate).
The active material from the anion exchange chromatography was applied to a Sephacryl S-300 HR 26/60 column equilibrated with 20 mM sodium phosphate pH 6.5, containing 0.15 M NaCl. The protein with β-glucosidase activity was eluted with a retention volume corresponding to a molecular weight of 243 kDa. The protein was judged to be pure by SDS-polyacrylamide gel electrophoresis and the molecular weight was evaluated to be 101 kDa. The pI of the purified protein, designated as At βG—101, was determined in an IEF gel (PhastSystem, Pharmacia) to be in the area of 5.6-4.9. The specific activity of At βG—101 at 50° C. was determined to be 1100 nkat/mg (using 4-nitrophenyl-β-D-glucopyranoside as substrate, Bailey and Linko, 1990).
The active material from the cation exchange chromatography was applied to a Sephacryl S-300 HR 26/60 column equilibrated with 20 mM sodium phosphate pH 7.0, containing 0.15 M NaCl. The protein with β-glucosidase activity was eluted with a retention volume corresponding to a molecular weight of 294 kDa. […] The protein was judged to be pure by SDS-polyacrylamide gel electrophoresis and the molecular weight was evaluated to be 81 kDa, representing most likely the monomeric form of the protein. […] The specific activity of the purified protein, designated as Ta βG—81, at 50° C. was determined to be 600 nkat/mg using 4-nitrophenyl-β-D-glucopyranoside as substrate (Bailey and Linko, 1990). […]

[2] = Xylanase activity on birch xylan; type: biochemical
Method: (§1) The specific activity of the preparations was determined using 4-methylumbelliferyl-β-D-lactoside (MUL), 4-methylumbelliferyl-β-D-cellobioside (MUG2) or 4-methylumbelliferyl-β-D-cellotrioside (MUG3) as substrate (van Tilbeurgh et al., 1988) in 0.05 M sodium citrate buffer pH 5 at 50° C. for 10 min. Endoglucanase and xylanase activities were determined by standard procedures (according to IUPAC, 1987) using carboxymethyl cellulose (CMC) and birch glucuronoxylan (Bailey et al., 1992) as substrates. Specific activity against Avicel was calculated on the basis of reducing sugars formed in a 24 h reaction at 50° C., pH 5.0, with 1% substrate and 0.25 μM enzyme dosage. The protein content of the purified enzyme preparations was measured according to Lowry et al., 1951. To characterize the end products of hydrolysis, soluble sugars liberated in 24 h hydrolysis experiment, as described above, were analysed by HPLC (Dionex). Purified cellobiohydrolase I (CBHI/Cel7A) of Trichoderma reesei was used as a reference.
Acremonium thermophilum ALKO4245 was grown as described in Example 1. The culture supernatant was incubated at 70° C. for 24 hours after which, it was concentrated by ultrafiltration. The pure xylanase was obtained by sequential purification with hydrophobic interaction and cation exchange chromatography followed by gel filtration. The xylanase activity was determined using birch xylan as substrate (procedure of IUPAC 1987). Protein was assayed by BioRad Protein Assay Kit (Bio-Rad Laboratories) using bovine serum albumin as standard.
Thermoascus aurantiacus ALKO4242 was grown as described in Example 1. The pure xylanase was obtained by sequential purification with hydrophobic interaction, anion, and cation exchange chromatography followed by gel filtration. The xylanase activity was determined using birch xylan as substrate (procedure of IUPAC 1987). Protein was assayed by BioRad Protein Assay Kit (Bio-Rad Laboratories) using bovine serum albumin as standard.

[3] = Specific activity on MUG3; type: biochemical; settings: purified xylanase, 50° C. pH 5.0 10 min
Method: as §1

Specific activity on MUL = type: biochemical; settings: purified xylanase, 50° C. pH 5.0 10 min
Method: as §1

[4] = Specific activity on MUG2; type: biochemical; settings: purified xylanase, 50° C. pH 5.0 10 min
Method: as §1

[5] = Hydrolysis with CBH enzyme mixtures, spruce; type: biochemical; settings: additional enzymes EGII, bG; 48 h, 45° C., pH 5.0
Method: (§2) The performance of the purified recombinant cellobiohydrolases was evaluated in the hydrolysis studies with purified T. reesei enzymes. Hydrolysis was carried out with controlled mixtures of purified enzymes on several pre-treated substrates. […] In addition, pure T. reesei cellulases (purified as described by Suurnäkki et al., 2000) were used in the enzyme mixtures. The cellobiohydrolases used in the experiment were:
(§3) Each CBH/Cel7 to be tested (dosage 14.5 mg/g dry matter of substrate) was used either together with EGII/Cel5A of T. reesei (3.6 mg/g) or with a mixture containing T. reesei EGI/Cel7B (1.8 mg/g), EGII/Cel5A (1.8 mg/g), xylanase pI 9 (Tenkanen et al. 1992) (5000 nkat/g) and acetyl xylan esterase (AXE) (Sundberg and Poutanen, 1991) (250 nkat/g). All mixtures were supplemented with additional β-glucosidase from a commercial enzyme preparation Novozym 188 (176 nkat/g d.w.). Triplicate tubes containing the enzyme mixture and 10 mg (dry matter)/ml of the substrate suspended in 0.05 M sodium acetate were incubated in mixing by magnetic stirring at 45° C. for 48 h. Reference samples with inactivated enzymes and corresponding substrates were also prepared. The release of hydrolysis products was measured as reducing sugars with DNS method using glucose as standard (Table 30).
Washed steam pre-treated spruce fibre (impregnation with 3% w/w SO2 for 20 min, followed by steam pre-treatment at 215° C. for 5 min), dry matter 25.9% (SPRUCE).

[6] = Hydrolysis with CBH enzyme mixtures, willow; type: biochemical; settings: additional enzymes EGII, bG, 48 h, 45° C., pH 5.0
Method: as §2, §3
Washed steam pre-treated willow fibre (pre-treatment for 14 min at 210° C.), dry matter 23.0% (WILLOW).

[7] = Hydrolysis with CBH enzyme mixtures, corn stover; type: biochemical; settings: additional enzymes EGII, bG, 48 h, 45° C., pH 5.0
Method: as §2, §3
Washed wet oxidized corn stover fibre (WOCS).

[8] = Hydrolysis with CBH enzyme mixtures, Avicel; type: biochemical; settings: additional enzymes EGII, bG; 48 h, 45° C., pH 5.0
Method: as §2, §3
Crystalline cellulose (Avicel)

B1: Ct EG_54: endoglucanase of Chaetomium thermophilum ALKO4261, gene Ct cel7B, amino acid SEQ ID NO: 16 (protein)
chain: MTRKFALVPLLLGLASAQKPGNTPEVHPKITTYRCSHRQGCRPETNYIVLDSLTHPVHQLNSNANCGDWGNPPPRSVCPDVETCAQNCIMEGIQDYSTYGVTTSGSSLRLKQIHQGRVTSPRVYLLDKTEQQYEMMRLTGFEFTFDVDTTKLPCGMNAALYLSEMDATGARSRLNPGGAYYGTGYCDAQCFVTPFINGIGNIEGKGSCCNEMDIWEANSRSQSIAPHPCNKQGLYMCSGQECEFDGVCDEWGCTWNPYKVNVTDYYGRGPQFKVDTTRPFTVITQFPADQNGKLTSIHRMYVQDGKLIEAHTVNLPGYPQVNALNDDFCRATGAATKYLELGATAGMGEALRRGMVLAMSIWWDESGFMNWLDSGESGPCNPNEGNPQNIRQIEPEPEVTYSNLRWGEIGSTYKHNLKGGWTGRN
pI of the purified protein [1]: ~5.5

B2: At XYN_60: xylanase of Acremonium thermophilum ALKO4245, gene At xyn10A, amino acid SEQ ID NO: 20 (protein)
chain: MRAKQLLAAGLLAPASVSAQLNSLAVAAGLKYFGTAVREANVNGDATYMSYVNNKSEFGQVTPENGQKWDSTEPSQGQFSYSQGDIVPGVAKKNGQVLRCHTLVWYSQLPSWVSSGSWTRATLQSVIETHISNVMGHYKGQCYAWDVVNEAINDDGTWRTSVFYNTFNTDYLAIAFNAAKKADAGAKLYYNDYNLEYNGAKTNTAVQLVQIVQQAGAPIDGVGFQGHLIVGSTPSRSSLATALKRFTALGLEVAYTELDIRHSSLPPSSAALATQGNDFASVVGSCLDVAGCVGITIWGFTDKYSWVPDTFPGSGAALLYDANYSKKPAWTSVSSVLAAKATNPPGGGNPPPVTTTTTTTTTSKPSQPTTTTTTTSPQGPQQTHWGQCGGIGWTGPQSCQSPWTCQKQNDWYSQCL
Relative activity at 60° C. as compared to 50° C. ([2]; 10 min, pH 5.0): about 1.2 fold | Relative activity at 70° C. as compared to 50° C. ([2]; 10 min, pH 5.0): ~1.65 fold | Specific activity on birch xylan ([2]; purified xylanase, 50° C., procedure of IUPAC 1987): 1800 nkat/mg | Specific activity against MUG3 [3]: 78 nkat/mg | Specific activity against MUL (Specific activity on MUL): 33 nkat/mg | Specific activity against MUG2 [4]: 54 nkat/mg

B3: Ta Cel7A + Ct CBD: Thermoascus aurantiacus Cel7A fused to linker and CBD of Chaetomium thermophilum Cel7A, SEQ ID NO: 30 (protein)
chain: MYQRALLFSFFLAAARAQQAGTVTAENHPSLTWQQCSSGGSCTTQNGKVVIDANWRWVHTTSGYTNCYTGNTWDTSICPDDVTCAQNCALDGADYSGTYGVTTSGNALRLNFVTQSSGKNIGSRLYLLQDDTTYQIFKLLGQEFTFDVDVSNLPCGLNGALYFVAMDADGGLSKYPGNKAGAKYGTGYCDSQCPRDLKFINGQANVEGWQPSANDPNAGVGNHGSCCAEMDVWEANSISTAVTPHPCDTPGQTMCQGDDCGGTYSSTRYAGTCDPDGCDFNPYRQGNHSFYGPGQIVDTSSKFTVVTQFITDDGTPSGTLTEIKRFYVQNGKVIPQSESTISGVTGNSITTEYCTAQKAAFGDNTGFFTHGGLQKISQALAQGMVLVMSLWDDHAANMLWLDSTYPTDADPDTPGVARGTCPTTSGVPADVESQYPNSYVIYSNIKVGPIGSTVPGLDGSNPGNPTTTVVPPASTSTSRPTSSTSSPVSTPTGQPGGCTTQKWGQCGGIGYTGCTNCVAGTTCTQLNPWYSQCL
Hydrolysis products as reducing sugars, SPRUCE [5]: 3.7 mg/mL | Hydrolysis products as reducing sugars, WILLOW ([6]; EGI, XYL, AXE): 5.6 mg/mL | Hydrolysis products as reducing sugars, WILLOW [6]: 3.7 mg/mL | Hydrolysis products as reducing sugars, WOCS ([7]; EGI, XYL, AXE): 7.2 mg/mL | Hydrolysis products as reducing sugars, WOCS [7]: 4.6 mg/mL | Hydrolysis products as reducing sugars, Avicel [8]: 4.9 mg/mL
